{"source": "paper PMC8831599", "about": "(2022)", "key": {"His-DDB1–CRBN complex": {"molecular_target": "His-DDB1–CRBN complex (human, UniProt Q96SW2 41-442; Q16531 1-1140)", "test": "200 uM pomalidomide; AlphaScreen competition"}, "IAA7 degron": {"molecular_target": "T1, IAA7 degron (Arabidopsis thaliana, UniProt Q38825, auxin)", "T1 chain": "QVVGWPPVRNYRK", "test": "BLI"}, "GST-TIR1-ASK1 complex": {"molecular_target": "T2, GST-TIR1-ASK1 complex (Arabidopsis thaliana, UniProt Q570C0 1-594; Q39255 1-160)", "T2 chain 1": "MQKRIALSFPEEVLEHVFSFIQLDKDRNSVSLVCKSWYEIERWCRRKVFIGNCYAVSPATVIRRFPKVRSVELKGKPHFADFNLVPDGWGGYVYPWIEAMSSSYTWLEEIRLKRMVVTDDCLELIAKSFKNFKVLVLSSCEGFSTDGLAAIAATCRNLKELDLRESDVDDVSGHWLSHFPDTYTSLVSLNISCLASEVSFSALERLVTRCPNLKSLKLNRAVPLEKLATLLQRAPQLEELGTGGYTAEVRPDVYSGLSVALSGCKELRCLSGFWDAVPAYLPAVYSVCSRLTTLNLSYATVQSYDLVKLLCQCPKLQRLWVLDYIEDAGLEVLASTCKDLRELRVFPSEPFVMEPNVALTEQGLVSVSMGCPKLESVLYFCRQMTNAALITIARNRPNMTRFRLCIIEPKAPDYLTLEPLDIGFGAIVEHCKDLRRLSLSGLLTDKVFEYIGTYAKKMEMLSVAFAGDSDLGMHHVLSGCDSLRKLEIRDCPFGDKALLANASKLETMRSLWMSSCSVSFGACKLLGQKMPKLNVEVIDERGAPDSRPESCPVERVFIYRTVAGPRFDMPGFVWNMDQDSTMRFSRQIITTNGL", "T2 chain 2": "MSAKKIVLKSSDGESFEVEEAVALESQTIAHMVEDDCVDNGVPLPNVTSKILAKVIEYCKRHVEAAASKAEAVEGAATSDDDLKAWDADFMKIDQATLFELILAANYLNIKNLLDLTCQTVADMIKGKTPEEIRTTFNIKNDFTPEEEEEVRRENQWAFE", "test": "200 uM auxin; AlphaScreen competition with biotin-Aux/IAA7"}, "[1]": {"molecular_target": "T3, Biotinylated DB21 F48A-H101A (biotin on the Avi-tag (BirA-catalyzed))", "test": "no CBD; AlphaScreen competition"}, "Biotinylated DB21 F48A [2]": {"molecular_target": "T4, Biotinylated DB21 F48A (biotin on the Avi-tag (BirA-catalyzed))", "test": "no CBD; AlphaScreen competition"}, "[3]": {"molecular_target": "T5, Biotin-DB21 (biotinylated Avi-DB21) (biotin on the Avi-tag (BirA-catalyzed))", "test": "no CBD; AlphaScreen competition with His-CA14"}, "[4]": {"molecular_target": "T3, Biotinylated DB21 F48A-H101A", "test": "200 uM CBD; AlphaScreen competition"}, "Biotinylated DB21 F48A [5]": {"molecular_target": "T4, Biotinylated DB21 F48A", "test": "200 uM CBD; AlphaScreen competition"}, "[6]": {"molecular_target": "T5, Biotin-DB21 (biotinylated Avi-DB21)", "test": "200 uM CBD; AlphaScreen competition with His-CA14"}, "[7]": {"molecular_target": "T3, Biotinylated DB21 F48A-H101A", "test": "BLI; 200 uM CBD"}, "Biotinylated DB21 F48A [8]": {"molecular_target": "T4, Biotinylated DB21 F48A", "test": "BLI; 200 uM CBD"}, "Biotinylated DB21 H101A": {"molecular_target": "Biotinylated DB21 H101A (biotin on the Avi-tag (BirA-catalyzed))", "test": "BLI; 200 uM CBD"}, "His-CA14": {"molecular_target": "His-CA14", "test": "200 uM CBD; AlphaScreen competition with Biotin-DB21"}, "His-CA14 D34A": {"molecular_target": "His-CA14 D34A", "test": "200 uM CBD; AlphaScreen competition with Biotin-DB21"}}, "data": [{"binder": "Label-free IKZF1 ZF2-3 (141-196) (domain or fragment) GERPFQCNQCGASFTQKGNLLRHIKLHSGEKPFKCHLCNYACRRRDALTGHLRTHS", "values": [{"measurement": "IC50", "setting": "His-DDB1–CRBN complex", "result": 67, "unit": "nM"}]}, {"binder": "TIR1 (protein) MQKRIALSFPEEVLEHVFSFIQLDKDRNSVSLVCKSWYEIERWCRRKVFIGNCYAVSPATVIRRFPKVRSVELKGKPHFADFNLVPDGWGGYVYPWIEAMSSSYTWLEEIRLKRMVVTDDCLELIAKSFKNFKVLVLSSCEGFSTDGLAAIAATCRNLKELDLRESDVDDVSGHWLSHFPDTYTSLVSLNISCLASEVSFSALERLVTRCPNLKSLKLNRAVPLEKLATLLQRAPQLEELGTGGYTAEVRPDVYSGLSVALSGCKELRCLSGFWDAVPAYLPAVYSVCSRLTTLNLSYATVQSYDLVKLLCQCPKLQRLWVLDYIEDAGLEVLASTCKDLRELRVFPSEPFVMEPNVALTEQGLVSVSMGCPKLESVLYFCRQMTNAALITIARNRPNMTRFRLCIIEPKAPDYLTLEPLDIGFGAIVEHCKDLRRLSLSGLLTDKVFEYIGTYAKKMEMLSVAFAGDSDLGMHHVLSGCDSLRKLEIRDCPFGDKALLANASKLETMRSLWMSSCSVSFGACKLLGQKMPKLNVEVIDERGAPDSRPESCPVERVFIYRTVAGPRFDMPGFVWNMDQDSTMRFSRQIITTNGL", "values": [{"measurement": "Kd", "setting": "IAA7 degron", "result": 30.5, "unit": "nM"}]}, {"binder": "QVVGWPPVRNYRK (synthetic peptide, unlabelled; limits not given, taken from the IAA7 degron peptide of the TIR1-ASK1 crystal structures (13-mer, PDB 2P1Q))", "note": "[IAA7 degron peptide, non-labeled]", "values": [{"measurement": "IC50", "setting": "GST-TIR1-ASK1 complex", "result": 18.4, "unit": "nM"}]}, {"binder": "CA14 anchor binder nanobody, tag-free (VHH) VHH: EVQLQASGGGFVQPGGSLRLSCAASGSTSRQYDMGWFRQAPGKEREFVSAISSNQDQPPYYADSVKGRFTISRDNSKNTVYLQMNSLRAEDTATYYCAFKQHHANGAYWGQGTQVTVSS", "values": [{"measurement": "IC50", "setting": "[1]", "result": 23, "unit": "µM"}, {"measurement": "IC50", "setting": "Biotinylated DB21 F48A [2]", "result": 18, "unit": "µM"}, {"measurement": "IC50", "setting": "[3]", "result": 17, "unit": "µM"}, {"measurement": "IC50", "setting": "[4]", "result": 4.7, "unit": "µM"}, {"measurement": "IC50", "setting": "Biotinylated DB21 F48A [5]", "result": 1700, "unit": "nM"}, {"measurement": "IC50", "setting": "[6]", "result": 31, "unit": "nM"}, {"measurement": "Kd", "setting": "[7]", "result": 1900, "unit": "nM"}, {"measurement": "Kd", "setting": "Biotinylated DB21 F48A [8]", "result": 1500, "unit": "nM"}, {"measurement": "Kd", "setting": "Biotinylated DB21 H101A", "result": 215, "unit": "nM"}]}, {"binder": "DB21 dimerization binder nanobody, tag-free (VHH) VHH: EVQLQASGGGFVQPGGSLRLSCAASGTTYGQTNMGWFRQAPGKEREFVSAISGLQGRDLYYADSVKGRFTISRDNSKNTVYLQMNSLRAEDTATYYCAFHDFLRMWEYWGQGTQVTVSS", "values": [{"measurement": "IC50", "setting": "His-CA14", "result": 35, "unit": "nM"}, {"measurement": "IC50", "setting": "His-CA14 D34A", "result": 27, "unit": "µM"}]}]}
